According to the DeepSol protein solubility set:

Test: soluble on expression in E. coli; label from the status in PepcDB or PDB records

Row | Sequence | soluble on expression in E. coli
1 | MGSDKIHHHHHHMTLEQLLMFNTVALAGSLKAASDKLHKTQPAISQSIKQLESQLDVVLFDRQGYRLALTQEGRKLLQYAQRVLNEAQEMRQVAKHLAIGNEASITLAFEASFNLARILPMLERTQLEFPHTQIILKQEYLTGALEALNQGKADIAISAGGIESMRSNHFELGFLFSGSLLDVASPRLLSRYPSLSHVKELVNEYQIVIQDTGTGTANIEFGVQAGQRRWYVNDFYTKKMLIQSGMGWGKLPYYMVEEALANGSLHPLELKERQNLIQLDYYVMRRPQSPLGPVAQALWENLVQLATKQS | not soluble
2 | MSLRPVKLAALLPLTGPFAFAGNAGREGFVDGVDYVNEVLGGIAGRKLELIVEDTGYDVAKGTAAFNRVLSRERPDELLFVYGDSTGLSKALAPEIARIGLPYSATSFANELADPEKYPTIFVFGPTYNDMMEALLRQIRLQKGKARIALVYSNTEFGRDPIPYVKERAKALGMEVVHEEVTPPAFTDATPVVLNLRRANPDFVLLQGYALSAEPLILRAAREQGLRAQFMGTYYSAELVLIQRAGPAAEGFTVTYHNPYWYDTLVPAVDEMRKFRQRKGRDSSYRPTYYMGSLAVALGVAEAMRRAAQAGKLTRAGVVEYLEKIGDYNAMGLVRGYQFVNHRIPYTKLYRASVKDGRFNAITDWLKLAEGHHHHHH | soluble
3 | VDEIGELADSFNTLTKRVQEAQAMTEGERRKLSSVLAYMTDGVIATDRRGKVILINTPAEKMLRVKHESANGRSIIDVLDIGDTYQFEDLMEVDGSLTMDRSTLDKPYVLRANFSVIQRETG | not soluble
4 | GSEFAIDPNEPTYCLCNQVSYGEMIGCDNEQCPIEWFHFSCVSLTYKPKGKWYCPKCRGDNE | soluble
5 | MGSDKIHHHHHHMLFSAPPVLAPVVPGKALEFPQDFGAHNDFRIEWWYVTGWLETPTGKPLGFQITFFRTATEIDRDNPSHFAPDQLIIAHVALSDPAIGKLQHDQKIARAGFDLAYARTGNTDVKLDDWIFVRETDGRYRTRIEAEDFTLTFILTPSQPLMLQGENGFSRKGPGAPQASYYYSEPHLQVSGIINRQGEDIPVTGTAWLDREWSSEYLDPNAAGWDWISANLDDGSALMAFQIRGKDDSKIWAYAALRDASGHTRLFTPDQVSFHPIRTWRSARTQAVYPVATRVLTGETEWQITPLMDDQELDSRASAGAVYWEGAVTFTRDGQPAGRGYMELTGYVRPLSM | not soluble
6 | MEGVELKEEWQDEDFPIPLPEDDSIEADTLDGTDPDRQPGSLEVNGNKVRKKLMAPDISLTLDPGEDSLWSDDLDEAGEVDLEGLDTPSENSDEFEWEDDLPKPKTTEVIRKGSITEYTATEEKGDGRRWRMFRIGEQDHRVDMKAIEPYKKVISHGGYYGDGLNAIVVFAVCFMPESGQPNYRYLMDNLFKYVIGTLELLVAENYMIIYLNGATTRRKMPSLGWLRRCYQQIDRRLRKNLKSLIIVHPSWFIRTLLAVTRPFISSKFSQKIRYVFNLAELAELVPMEYVGIPECIKQVDQELNGKQEPPKSEQ | not soluble
7 | QRLKVEDALSYLDQVKLQFGSQPQVYNDFLDIMKEFKSQSIDTPGVISRVSQLFKGHPDLIMGFNTFLPPG | soluble
8 | GPGSMSLVESQKGMTDLIPCNEQCGGDYGNYSFGQGDLDVTVTVPLPENTTKKMLLVQITASKLIVGLRGKPPIISGDFYRPVKASECTWCIEDKRLLVINMVKTNSQHEEWWPCVVVGERQIDMKTLKPPSKHVSELDESAQATIAKMMFDQRQKMQNLPTSEEMRLQEMMRAAQGAK | soluble
9 | MSADTLQIAYSPCPNDTFVFDALAHGRVPGAPALDVTFADIDITNGMAERGELDVLKVSYAVLPYVLDDWALLPCGGALGRGCGPLVLTREADADLRGRTVAVPSETSTAYLLFRLWAADTVPGGVGEIVVMPFHEIMPAVRDGKVDAGLVIHEARFTYQNYGLHKLADMGEHWEHTTGLPIPLGAIIARRSLGAPALTRLADAVRASVRAAWDDPEASRPYVMEHAQEMDPAVADQHIGLYVNEFTADLGEDGYAAIRGLLTRAAAEGLVPALGPDALAFP | not soluble
10 | MINHKIFPTADAVVKSLADDMLAYSQQGQPVHISLSGGSTPKMLFKLLASQPYANDIQWKNLHFWWGDERCVAPDDAESNYGEANALLFSKINMPAQNIHRILGENEPQAEAERFAQAMAHVIPTENGTPVFDWILLGVGADGHTASLFPGQTDYADANLSVVASHPESGQLRVSKTAKVLQAAKRISYLVLGAGKAEIVEQIHTTPAEQLPYPAAKIHSTSGVTEWYLDSDAAAKIA | soluble
11 | MDAENEDFDGAEDSDHTDNDKKEDELSLDNVLRLGGTKADYVMLAGISDTTELINGGKKVIIDDLEEGELEDFIKQLGIRAYADQQIIQDEEDPASSEPTQKEGKKAKGSKVKEDAAPNVKNKVTPSTQATKTSVQSTNLANATGKKAKQKPANLFEFIPRQFLLIKPGGKWFDIEYTSEGTSVAQNESLTCQYKALAQKLYENETALYKSKKSLQKGANSAWMKTRKLRTFSQHPFEELEEKSSGNKDTRDRRLILWYFEHQLKLQIADFVVTLDELAHDMVEATKMRALTTAYELLCNQPEQEKLLLVQIVNKLEDA | soluble
12 | MSIPEELWRRFQEGDPRALARALTLVESGHPAGRELLKRVRGKGRAKVVGVTGSPGAGKSTLTDRLILEARKRGERVAVLAVDPSSPFSGGAILGDRIRMMRHHQDPGVYIRSMASRGALGGLAGATVAALSLLEAFGFDRIFVETVGVGQSEVDIARVADTTLLVLTPAAGDAVQAFKAGVMEIADVFAVNKFDLPGGERIVQELKSALELSPPRPGGWRPPIHPTVAASGEGVEALFESLEAHHRHLVEHGLLEAHRLERARFEVESVIQEWGRQRTQGAGALVARVARGELTPEEAALALLGPGPEAEEGAL | soluble
13 | MTTRCPWVGEQSIYIDYHDKEWGKPEFDSQKLFEKICLEGQQAGLSWITVLKKRESYREAFHQFDPKKIAKMTALDIDACMQNSGLIRHRAKLEAIVKNAKAYLAMEKCGENFSDFIWSFVNHKPIVNDVPDLRSVPTKTEVSKALSKALKKRGFVFIGETTCYAFMQSMGLVDDHLNDCPCKTSLEHHHHHH | soluble
14 | MKQLWFAMSLVAASLFFSANASADPASGALLQQMNIASQSLNYELSFVSITKQGVESLRYRHARLDGRPLAQLLQLDGPRREVVQRGNEISYFEPGLEPFTLNGDYIVDSLPSLIYTDFKRLAPYYDFISVGRTRIADRLCEVIRVVARDGTRYSYIVWMDMDTKLPMRVDLLDRDGETLEQFRVIAFTVSQDIGSNMQALAKANLPPLLSVPGGEKTKFNWSPSWVPQGFSEVSSSRRPLPTMDNLPIESRLYSDGLFSFSVNVNRATQNSSDQMLRTGRRTVYSSVRDNAEITIVGELPPQTAKRIADSIKFRAVQ | not soluble
15 | MILSVHILDQQTGKPAPGVEVVLEQKKDNGWTQLNTGHTDQDGRIKALWPEKAAAPGDYRVIFKTGQYFESKKLDTFFPEIPVEFHISKTNEHYHVPLLLSQYGYSTYRGS | soluble
16 | NRYQDLEKQVITTGNSIIEPLAIASESHLLAESREAVRRLISYAHRKNSKLVRSIAVFDEHHELFVTSNFHPNFEALMFPKDKPIPKLGNSEIYENSLILRVPILSEGHYLSELSNENQGTKAIGYIAVEMDLSSLRLQQYQE | not soluble
17 | MGHHHHHHSHDGSLVHISISPYPAILHEYVSSSKWEDAVRLCRFVKEQTMWACLAAMAVANRDMTTAEIAYAAIGEIDKVQYINSIKNLPSKESKMAHILLFSGNIQEAEIVLLQAGLVYQAIQININLYNWERALELAVKYKTHVDTVLAYRQKFLETFGKQETNKRYLHYAEGLQIDWEKIKAKIEMEITKEREQSSSSQSSKSIGLKP | not soluble
18 | MLVVSIAGSPSVRSRSGVLLERARDWLSRRGVEVASHQVLDFPAEDLLRARLDSPPVLALAEQIGRADGLLVATPVYKASFSGALKVLLDLLPERALEHKVVLPFATGGSSAHMLAVDYALKPVLAALKAQEVLHGVFAVDKQIAYATESDPARLEPVLEQRLENALETFHLALSRRPQPIDPQLLNERLVNARWSI | soluble
